Measurements taken from US20080102072A1.

Assays:
[1] = biological target: IFNAR1-IgG single alanine mutant K249A (human); assay: capture ELISA, single alanine mutant IFNAR1-IgG captured by goat anti-hIgG-Fc; OD as % of wild type IFNAR1-IgG
[2] = biological target: IFNAR1-IgG single alanine mutant R74A (human); assay: as above
[3] = biological target: IFNAR1-IgG single alanine mutant H244A (human); assay: as above
[4] = biological target: IFNAR1-IgG single alanine mutant E70A (human); assay: as above
[5] = biological target: IFNAR1-IgG single alanine mutant D296A (human); assay: as above
[6] = biological target: IFNAR1-IgG single alanine mutant K72A (human); assay: as above
[7] = biological target: IFNAR1-IgG single alanine mutant E291A (human); assay: as above
[8] = biological target: IFNAR1-IgG single alanine mutant K247A (human); assay: as above
[9] = biological target: IFNAR1-IgG single alanine mutant E298A (human); assay: as above
[10] = biological target: IFNAR1-IgG single alanine mutant E292A (human); assay: as above
[11] = biological target: IFNAR1-IgG single alanine mutant K294A (human); assay: as above
[12] = biological target: IFNAR1-IgG single alanine mutant E69A (human); assay: as above
[13] = biological target: IFNAR1-IgG multiple alanine mutant 7, residues 244-249 (HLYKWK to ALYAWA) (human); assay: capture ELISA, mutant IFNAR1-IgG captured by goat anti-hIgG-Fc, mAb 10 µg/ml; OD as % of wild type IFNAR1-IgG
[14] = biological target: IFNAR1-IgG multiple alanine mutant 1, residues 19-25 (RWNRSDE to AWNASAA) (human); assay: as above
[15] = biological target: IFNAR1-IgG multiple alanine mutant 9, residues 352-359 (ERKIIEKK to AAAIIAAA) (human); assay: as above
[16] = biological target: IFNAR1-IgG multiple alanine mutant 8, residues 291-298 (EEIKFDTE to AAIAFATA) (human); assay: as above
[17] = biological target: IFNAR1-IgG multiple alanine mutant 3, residues 76-80 (RAEKE to AAAAA) (human); assay: as above
[18] = biological target: IFNAR1-IgG multiple alanine mutant 10, residues 383-388 (DEKLNK to AAALNA) (human); assay: as above
[19] = biological target: IFNAR1-IgG multiple alanine mutant 2, residues 69-74 (EEIKLR to AAIALA) (human); assay: as above
[20] = biological target: IFNAR1-IgG multiple alanine mutant 5, residues 148-152 (EERIE to AAAIA) (human); assay: as above
[21] = biological target: IFNAR1-IgG multiple alanine mutant 4, residues 103-111 (… to …) (human); assay: as above
[22] = biological target: IFNAR1-IgG multiple alanine mutant 6, residues 157-162 (RHKIYK to AAAIYA) (human); assay: as above
[23] = biological target: human IFNAR1, membrane receptor on cells (U266 human myeloma cells; Hela and A549 cells in the functional assays) (human) (UniProt P17181); assay: cell-based or functional assay
[24] = biological target: hIFNAR1 ECD-IgG fusion protein (immunoadhesin, pRK5 hIFNAR1-IgG clone 53.65), wild type (human); assay: competitive radioimmunoprecipitation with 125I-hIFNAR1-IgG and unlabeled hIFNAR1-IgG, Scatchard analysis

Chain of UniProt P17181 (P17181 28-557): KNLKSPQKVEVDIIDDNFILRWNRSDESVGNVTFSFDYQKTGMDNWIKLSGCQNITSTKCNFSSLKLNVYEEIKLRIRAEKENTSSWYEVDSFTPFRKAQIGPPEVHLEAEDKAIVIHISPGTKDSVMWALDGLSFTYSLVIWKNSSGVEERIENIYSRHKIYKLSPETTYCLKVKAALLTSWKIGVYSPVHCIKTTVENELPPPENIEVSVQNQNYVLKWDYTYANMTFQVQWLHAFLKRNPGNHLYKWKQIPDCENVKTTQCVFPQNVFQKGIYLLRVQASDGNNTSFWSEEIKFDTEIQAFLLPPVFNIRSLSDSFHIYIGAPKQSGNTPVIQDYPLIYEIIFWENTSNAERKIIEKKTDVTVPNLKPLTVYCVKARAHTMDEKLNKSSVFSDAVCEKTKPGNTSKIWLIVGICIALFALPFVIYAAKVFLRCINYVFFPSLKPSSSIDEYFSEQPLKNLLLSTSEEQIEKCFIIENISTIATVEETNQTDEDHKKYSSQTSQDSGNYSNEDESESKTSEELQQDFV
Chain of IFNAR1-IgG multiple alanine mutant 10, residues 383-388 (DEKLNK to AAALNA) (human) (chain, as listed by the source mutant limits assumed): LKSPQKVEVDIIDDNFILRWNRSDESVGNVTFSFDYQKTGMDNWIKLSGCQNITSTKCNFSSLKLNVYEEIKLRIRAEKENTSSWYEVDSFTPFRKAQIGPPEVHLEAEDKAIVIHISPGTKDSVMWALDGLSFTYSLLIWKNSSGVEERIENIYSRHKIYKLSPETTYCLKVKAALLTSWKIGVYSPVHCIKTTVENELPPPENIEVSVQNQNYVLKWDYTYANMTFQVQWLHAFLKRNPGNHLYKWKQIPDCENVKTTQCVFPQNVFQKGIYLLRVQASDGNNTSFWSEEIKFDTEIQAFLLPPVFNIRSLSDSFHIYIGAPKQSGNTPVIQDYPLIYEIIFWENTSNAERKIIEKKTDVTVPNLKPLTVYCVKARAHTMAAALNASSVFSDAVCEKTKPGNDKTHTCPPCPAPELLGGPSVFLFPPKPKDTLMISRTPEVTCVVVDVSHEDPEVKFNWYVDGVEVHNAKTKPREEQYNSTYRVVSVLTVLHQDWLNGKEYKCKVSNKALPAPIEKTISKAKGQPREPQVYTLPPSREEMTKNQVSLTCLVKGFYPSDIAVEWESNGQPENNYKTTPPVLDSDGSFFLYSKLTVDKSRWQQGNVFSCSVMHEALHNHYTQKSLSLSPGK
Chain of IFNAR1-IgG single alanine mutant D296A (human) (chain, as listed by the source D296A D296A limits assumed): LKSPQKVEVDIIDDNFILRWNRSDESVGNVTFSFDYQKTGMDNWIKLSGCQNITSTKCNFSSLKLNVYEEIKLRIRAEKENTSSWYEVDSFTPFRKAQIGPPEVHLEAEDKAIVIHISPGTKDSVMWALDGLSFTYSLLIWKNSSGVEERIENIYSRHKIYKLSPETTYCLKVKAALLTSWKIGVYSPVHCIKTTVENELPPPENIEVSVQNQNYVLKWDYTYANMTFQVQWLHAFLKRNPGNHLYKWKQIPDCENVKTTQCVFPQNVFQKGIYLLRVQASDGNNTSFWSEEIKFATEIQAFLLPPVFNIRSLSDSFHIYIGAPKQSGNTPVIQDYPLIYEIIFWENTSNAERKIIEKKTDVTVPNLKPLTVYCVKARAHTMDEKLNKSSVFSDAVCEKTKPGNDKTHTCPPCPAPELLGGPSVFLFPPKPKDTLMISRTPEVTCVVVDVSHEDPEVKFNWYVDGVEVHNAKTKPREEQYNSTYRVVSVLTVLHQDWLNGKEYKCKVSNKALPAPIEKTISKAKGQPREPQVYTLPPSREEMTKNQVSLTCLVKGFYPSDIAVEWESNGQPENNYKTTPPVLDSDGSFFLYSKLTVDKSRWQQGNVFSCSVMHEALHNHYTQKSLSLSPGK
Chain of IFNAR1-IgG multiple alanine mutant 1, residues 19-25 (RWNRSDE to AWNASAA) (human) (chain, as listed by the source mutant limits assumed): as the sequence (chain, as listed by the source D296A D296A limits assumed) above, with R19A, R22A, D24A, E25A, A296D counted along it
Chain of IFNAR1-IgG single alanine mutant R74A (human) (chain, as listed by the source R74A R74A limits assumed): as the sequence (chain, as listed by the source D296A D296A limits assumed) above, with R74A, A296D counted along it
Chain of IFNAR1-IgG multiple alanine mutant 8, residues 291-298 (EEIKFDTE to AAIAFATA) (human) (chain, as listed by the source mutant limits assumed): as the sequence (chain, as listed by the source D296A D296A limits assumed) above, with E291A, E292A, K294A, E298A counted along it
Chain of IFNAR1-IgG single alanine mutant E298A (human) (chain, as listed by the source E298A E298A limits assumed): as the sequence (chain, as listed by the source D296A D296A limits assumed) above, with A296D, E298A counted along it
Chain of IFNAR1-IgG multiple alanine mutant 2, residues 69-74 (EEIKLR to AAIALA) (human) (chain, as listed by the source mutant limits assumed): as the sequence (chain, as listed by the source D296A D296A limits assumed) above, with E69A, E70A, K72A, R74A, A296D counted along it

Row | % Wild type binding of mAbs [1] [%] | % Wild type binding of mAbs [2] [%] | % Wild type binding of mAbs [3] [%] | % Wild type binding of mAbs [4] [%] | % Wild type binding of mAbs [5] [%] | % Wild type binding of mAbs [6] [%] | % Wild type binding of mAbs [7] [%] | % Wild type binding of mAbs [8] [%] | % Wild type binding of mAbs [9] [%] | % Wild type binding of mAbs [10] [%] | % Wild type binding of mAbs [11] [%] | % Wild type binding of mAbs [12] [%] | % Wild type binding of mAbs [13] [%] | % Wild type binding of mAbs [14] [%] | % Wild type binding of mAbs [15] [%] | % Wild type binding of mAbs [16] [%] | % Wild type binding of mAbs [17] [%] | % Wild type binding of mAbs [18] [%] | % Wild type binding of mAbs [19] [%] | % Wild type binding of mAbs [20] [%] | Substance | also measured
1 | 69 | 0 | 94 | 79 | 49 | 89 | 49 | 88 | 53 | 55 | 65 | 64 | 105 | 77 | 101 | 64 | 48 | 93 | 0 | 68 | anti-hIFNAR1 monoclonal antibody 2H6 (hybridoma ATCC HB 12131) | % Wild type binding of mAbs [21]: 39%; % Wild type binding of mAbs [22]: 90%; EC50 of mAb neutralizing the anti-viral cytopathic effect of 10 units/ml IFNα1 on A549 cells (EMC virus) [23]: > 30 µg/mL; EC50 of mAb neutralizing the anti-viral cytopathic effect of 10 units/ml IFNα2/1 on A549 cells (EMC virus) [23]: > 30 µg/mL; EC50 of mAb neutralizing the anti-viral cytopathic effect of 10 units/ml IFNα2 on A549 cells (EMC virus) [23]: > 30 µg/mL; EC50 of mAb neutralizing the anti-viral cytopathic effect of 10 units/ml IFNα5 on A549 cells (EMC virus) [23]: > 30 µg/mL; EC50 of mAb neutralizing the anti-viral cytopathic effect of 10 units/ml IFNα8 on A549 cells (EMC virus) [23]: > 30 µg/mL; EC50 of mAb neutralizing the anti-viral cytopathic effect of 10 units/ml IFNβ on A549 cells (EMC virus) [23]: > 30 µg/mL; Kd [24]: 3.12 nM
2 | 71 | 84 | 99 | 83 | 70 | 110 | 61 | 93 | 72 | 66 | 82 | 91 | 110 | 110 | 81 | 75 | 109 | 83 | 67 | 80 | anti-hIFNAR1 monoclonal antibody 5A8 (hybridoma ATCC HB 12129) | % Wild type binding of mAbs [21]: 34%; % Wild type binding of mAbs [22]: 100%; EC50 of mAb neutralizing the anti-viral cytopathic effect of 10 units/ml IFNα1 on A549 cells (EMC virus) [23]: > 30 µg/mL; EC50 of mAb neutralizing the anti-viral cytopathic effect of 10 units/ml IFNα2/1 on A549 cells (EMC virus) [23]: > 30 µg/mL; EC50 of mAb neutralizing the anti-viral cytopathic effect of 10 units/ml IFNα2 on A549 cells (EMC virus) [23]: > 30 µg/mL; EC50 of mAb neutralizing the anti-viral cytopathic effect of 10 units/ml IFNα5 on A549 cells (EMC virus) [23]: > 30 µg/mL; EC50 of mAb neutralizing the anti-viral cytopathic effect of 10 units/ml IFNα8 on A549 cells (EMC virus) [23]: > 30 µg/mL; EC50 of mAb neutralizing the anti-viral cytopathic effect of 10 units/ml IFNβ on A549 cells (EMC virus) [23]: > 30 µg/mL; Kd [24]: 0.174 nM
